Data from patent publication US7399833 (dated 2008).
Several values for one entry are separate records, joined by “and”; a condition that tells them apart may be missing. Equal entries are not always repeated.

T1: Mpl-X (the soluble extra-cellular domain of the Mpl receptor) (human, UniProt P40238 26-491, coupled to CNBr activated Sepharose resin)
T1 construct: extracellular domain; also called hu-MPL-X
T1 sequence (looked up): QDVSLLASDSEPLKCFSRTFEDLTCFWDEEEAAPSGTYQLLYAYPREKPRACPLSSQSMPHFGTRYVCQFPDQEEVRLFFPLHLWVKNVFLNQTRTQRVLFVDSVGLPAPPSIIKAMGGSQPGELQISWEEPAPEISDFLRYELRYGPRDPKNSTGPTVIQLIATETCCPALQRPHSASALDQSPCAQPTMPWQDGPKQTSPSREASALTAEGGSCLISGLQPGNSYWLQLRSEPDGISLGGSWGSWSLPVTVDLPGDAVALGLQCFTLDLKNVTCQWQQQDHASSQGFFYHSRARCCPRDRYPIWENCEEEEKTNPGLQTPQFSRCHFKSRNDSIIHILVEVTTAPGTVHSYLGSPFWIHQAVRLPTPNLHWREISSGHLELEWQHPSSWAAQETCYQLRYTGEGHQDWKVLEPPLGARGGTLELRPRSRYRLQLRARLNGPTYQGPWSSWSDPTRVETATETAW

B1: CHO-derived MGDF 1-163 (ligand)
chain: SPAPPACDLRVLSKLLRDSHVLHSRLSQCPEVHPLPTPVLLPAVDFSLGEWKTQMEETKAQDILGAVTLLLEGVMAARGQLGPTCLSSLLGQLSGQVRLLLGALQSLLGTQLPPQGRTTAHKDPNAIFLSFQHLLRGKVRFLMLVGGSTLCVRRAPPTTAVPS
modifications: CHO-expressed material carries O-linked carbohydrate, which the letters do not show.
notes: see the note on m1; also called r-HuMGDF 1-163 (CHO)
B2: CHO-derived MGDF 1-153 (ligand)
chain: SPAPPACDLRVLSKLLRDSHVLHSRLSQCPEVHPLPTPVLLPAVDFSLGEWKTQMEETKAQDILGAVTLLLEGVMAARGQLGPTCLSSLLGQLSGQVRLLLGALQSLLGTQLPPQGRTTAHKDPNAIFLSFQHLLRGKVRFLMLVGGSTLCVR
modifications: CHO-expressed material carries O-linked carbohydrate, which the letters do not show.
notes: see the note on m1; also called r-HuMGDF 1-153 (CHO)

How the values were obtained:
[1] = molecular target: full length human Mpl receptor on 32D-MPL cells (human) (UniProt P40238); experiment: cell-based or functional assay
[2] = molecular target: T1, Mpl-X (the soluble extra-cellular …); experiment: Mpl-receptor affinity chromatography

| Molecule | In Vitro Activity (units/ml), 32D-MPL cell proliferation [1] | Specific Activity (units/ng), 32D-MPL cell proliferation / MGDF ELISA [1] | binding result [2] |
| --- | --- | --- | --- |
| [Ser36, Asn38, Thr40] MGDF 1-174 (ligand) | < 10 units/ml | < 8 units/ng | – |
| [Asn92] MGDF 1-174 (ligand) | 1970 units/ml | 188 units/ng | – |
| [Asn58, Thr60] MGDF 1-174 (ligand) | 4850 units/ml | 271 units/ng | – |
| [Asn86] MGDF 1-174 (ligand) | < 10 units/ml | < 22 units/ng | – |
| [Asn82, Ala83] MGDF 1-174 (ligand) | 2660 units/ml and 3080 units/ml | 443 units/ng and 655 units/ng | – |
| [Asn30, Thr32] MGDF 1-174 (ligand) | 8830 units/ml | 232 units/ng | – |
| [Asn38, Thr40] MGDF 1-174 (ligand) | < 10 units/ml | < 8 units/ng | – |
| [Asn53, Thr55] MGDF 1-174 (ligand) | 18000 units/ml | 269 units/ng | – |
| [Asn30, Thr32, Asn120, Thr122] MGDF 1-174 (ligand) | 6420 units/ml | 247 units/ng | – |
| [Asn25] MGDF 1-174 (ligand) | 636 units/ml | 344 units/ng | – |
| [Asn120, Thr122] MGDF 1-174 (ligand) | 5940 units/ml and 9690 units/ml | 291 units/ng and 288 units/ng | – |
| B1 | – | – | binds |
| B2 | – | – | binds |
